# Read-outs that look alike come from different tables or passages of the source.
# Experiment: Ex vivo biodistribution of 177Lu-labeled peptide tetramers in H2009 xenografted SCID mice
# Conditions: CB17 SCID, mouse, iv, total radioactivity; for tissue uptake at 1.5 h: 90 min p.i.; for tissue uptake at 72 h: 199 pmol, 3 d p.i.; for tissue uptake at 24 h: 154 pmol, 24 h p.i.
# Summary of the method: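 SCID mice carried subcutaneous H2009 xenografts on the right shoulder. 177Lu-labeled conjugates were injected i.v., and ex vivo organ distribution was measured at two time points post-injection.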
# [1] = adrenals, H2009 bearing SCID mice, read-out: Adrenals %IA/g
# [2] = blood, H2009 bearing SCID mice, read-out: Blood %IA/g
# [3] = bone, H2009 bearing SCID mice, read-out: Bone %IA/g
# [4] = heart (myocard), H2009 bearing SCID mice, read-out: Heart (myocard) %IA/g
# [5] = kidneys, H2009 bearing SCID mice, read-out: Kidneys %IA/g
# [6] = large intestine (empty), H2009 bearing SCID mice, read-out: Large intestine (empty) %IA/g
# [7] = liver, H2009 bearing SCID mice, read-out: Liver %IA/g
# [8] = lung, H2009 bearing SCID mice, read-out: Lung %IA/g
# [9] = muscle, H2009 bearing SCID mice, read-out: Muscle %IA/g
# [10] = pancreas, H2009 bearing SCID mice, read-out: Pancreas %IA/g
# [11] = small intestine (empty), H2009 bearing SCID mice, read-out: Small intestine (empty) %IA/g
# [12] = spleen, H2009 bearing SCID mice, read-out: Spleen %IA/g
smiles,measurement,setting,value
"CC(C)C[C@@H]1NC(=O)[C@H](CC(=O)O)NC(=O)CNC(=O)[C@H](CCCNC(=N)N)NC(=O)[C@H](Cc2ccc(O)cc2)NC(=O)[C@H](CCCCNC(=O)CCc2cn(CCCNC(=O)CCP(=O)(O)CN3CCN(CP(=O)(O)CCC(=O)NCCCn4cc(CCC(=O)NCCCC[C@H]5C(=O)N[C@@H](Cc6ccc(O)cc6)C(=O)N[C@@H](CCCNC(=N)N)C(=O)NCC(=O)N[C@@H](CC(=O)O)C(=O)N[C@@H](CC(C)C)C(=O)N[C@@H](C)C(=O)N[C@@H](Cc6ccc(O)cc6)C(=O)N6CCC[C@@H]6C(=O)N5C)nn4)CCN(CP(=O)(O)CCC(=O)NCCCn4cc(CCC(=O)NCCCC[C@H]5C(=O)N[C@@H](Cc6ccc(O)cc6)C(=O)N[C@@H](CCCNC(=N)N)C(=O)NCC(=O)N[C@@H](CC(=O)O)C(=O)N[C@@H](CC(C)C)C(=O)N[C@@H](C)C(=O)N[C@@H](Cc6ccc(O)cc6)C(=O)N6CCC[C@@H]6C(=O)N5C)nn4)CCN(CP(=O)(O)CCC(=O)NCCCn4cc(CCC(=O)NCCCC[C@H]5C(=O)N[C@@H](Cc6ccc(O)cc6)C(=O)N[C@@H](CCCNC(=N)N)C(=O)NCC(=O)N[C@@H](CC(=O)O)C(=O)N[C@@H](CC(C)C)C(=O)N[C@@H](C)C(=O)N[C@@H](Cc6ccc(O)cc6)C(=O)N6CCC[C@@H]6C(=O)N5C)nn4)CC3)nn2)N(C)C(=O)[C@H]2CCCN2C(=O)[C@H](Cc2ccc(O)cc2)NC(=O)[C@H](C)NC1=O [Compound 177Lu-Y8, metal not drawn]",tissue uptake at 1.5 h,"H2009 tumor, 124 pmol, H2009 bearing SCID mice, read-out: Tumor H2009 %IA/g",5.89 %ID/g
same,tissue uptake at 72 h,"H2009 tumor, H2009 bearing SCID mice, read-out: Tumor H2009 %IA/g",1.67 %ID/g
same,tissue uptake at 1.5 h,"adrenals, 124 pmol, H2009 bearing SCID mice, read-out: Adrenals %IA/g",0.71 %ID/g
same,tissue uptake at 24 h,[1],0.25 %ID/g
same,tissue uptake at 72 h,[1],0.22 %ID/g
same,tissue uptake at 1.5 h,"adrenals, + 50 nmol non-labeled compound 10 min prior to activity, n = 2, read-out: Adrenals %IA/g, + 50 nmol cold",0.53 %ID/g
same,tissue uptake at 1.5 h,"blood, 124 pmol, H2009 bearing SCID mice, read-out: Blood %IA/g",2.54 %ID/g
same,tissue uptake at 24 h,[2],0.04 %ID/g
same,tissue uptake at 72 h,[2],0.03 %ID/g
same,tissue uptake at 1.5 h,"blood, + 50 nmol non-labeled compound 10 min prior to activity, n = 2, read-out: Blood %IA/g, + 50 nmol cold",1.06 %ID/g
same,tissue uptake at 1.5 h,"bone, 124 pmol, H2009 bearing SCID mice, read-out: Bone %IA/g",3.24 %ID/g
same,tissue uptake at 24 h,[3],0.68 %ID/g
same,tissue uptake at 72 h,[3],0.57 %ID/g
same,tissue uptake at 1.5 h,"bone, + 50 nmol non-labeled compound 10 min prior to activity, n = 2, read-out: Bone %IA/g, + 50 nmol cold",0.76 %ID/g
same,tissue uptake at 1.5 h,"heart (myocard), 124 pmol, H2009 bearing SCID mice, read-out: Heart (myocard) %IA/g",1.01 %ID/g
same,tissue uptake at 24 h,[4],0.16 %ID/g
same,tissue uptake at 72 h,[4],0.13 %ID/g
same,tissue uptake at 1.5 h,"heart (myocard), + 50 nmol non-labeled compound 10 min prior to activity, n = 2, read-out: Heart (myocard) %IA/g, + 50 nmol cold",0.64 %ID/g
same,tissue uptake at 1.5 h,"kidneys, 124 pmol, H2009 bearing SCID mice, read-out: Kidneys %IA/g",166 %ID/g
same,tissue uptake at 24 h,[5],235 %ID/g
same,tissue uptake at 72 h,[5],237 %ID/g
same,tissue uptake at 1.5 h,"kidneys, + 50 nmol non-labeled compound 10 min prior to activity, n = 2, read-out: Kidneys %IA/g, + 50 nmol cold",178 %ID/g
same,tissue uptake at 1.5 h,"large intestine (empty), 124 pmol, H2009 bearing SCID mice, read-out: Large intestine (empty) %IA/g",3.66 %ID/g
same,tissue uptake at 24 h,[6],1.46 %ID/g
same,tissue uptake at 72 h,[6],0.48 %ID/g
same,tissue uptake at 1.5 h,"large intestine (empty), + 50 nmol non-labeled compound 10 min prior to activity, n = 2, read-out: Large intestine (empty) %IA/g, + 50 nmol cold",0.89 %ID/g
same,tissue uptake at 1.5 h,"liver, 124 pmol, H2009 bearing SCID mice, read-out: Liver %IA/g",1.16 %ID/g
same,tissue uptake at 24 h,[7],0.98 %ID/g
same,tissue uptake at 72 h,[7],0.7 %ID/g
same,tissue uptake at 1.5 h,"liver, + 50 nmol non-labeled compound 10 min prior to activity, n = 2, read-out: Liver %IA/g, + 50 nmol cold",0.7 %ID/g
same,tissue uptake at 1.5 h,"lung, 124 pmol, H2009 bearing SCID mice, read-out: Lung %IA/g",5.63 %ID/g
same,tissue uptake at 24 h,[8],1.2 %ID/g
same,tissue uptake at 72 h,[8],0.73 %ID/g
same,tissue uptake at 1.5 h,"lung, + 50 nmol non-labeled compound 10 min prior to activity, n = 2, read-out: Lung %IA/g, + 50 nmol cold",3.39 %ID/g
same,tissue uptake at 1.5 h,"muscle, 124 pmol, H2009 bearing SCID mice, read-out: Muscle %IA/g",0.87 %ID/g
same,tissue uptake at 24 h,[9],0.36 %ID/g
same,tissue uptake at 72 h,[9],0.23 %ID/g
same,tissue uptake at 1.5 h,"muscle, + 50 nmol non-labeled compound 10 min prior to activity, n = 2, read-out: Muscle %IA/g, + 50 nmol cold",0.2 %ID/g
same,tissue uptake at 1.5 h,"pancreas, 124 pmol, H2009 bearing SCID mice, read-out: Pancreas %IA/g",0.42 %ID/g
same,tissue uptake at 24 h,[10],0.14 %ID/g
same,tissue uptake at 72 h,[10],0.12 %ID/g
same,tissue uptake at 1.5 h,"pancreas, + 50 nmol non-labeled compound 10 min prior to activity, n = 2, read-out: Pancreas %IA/g, + 50 nmol cold",0.19 %ID/g
same,tissue uptake at 1.5 h,"small intestine (empty), 124 pmol, H2009 bearing SCID mice, read-out: Small intestine (empty) %IA/g",3 %ID/g
same,tissue uptake at 24 h,[11],1.03 %ID/g
same,tissue uptake at 72 h,[11],0.16 %ID/g
same,tissue uptake at 1.5 h,"small intestine (empty), + 50 nmol non-labeled compound 10 min prior to activity, n = 2, read-out: Small intestine (empty) %IA/g, + 50 nmol cold",0.62 %ID/g
same,tissue uptake at 1.5 h,"spleen, 124 pmol, H2009 bearing SCID mice, read-out: Spleen %IA/g",8.41 %ID/g
same,tissue uptake at 24 h,[12],1.89 %ID/g
same,tissue uptake at 72 h,[12],2.01 %ID/g

# Reference: publication PMC11187563, “The importance of tyrosines in multimers of cyclic RGD nonapeptides: towards αvβ6-integrin targeted radiotherapeutics” (RSC Medicinal Chemistry, 2024)
